Biological target: FITC-casein (fluorescein-labeled casein, Sigma #C0528) (bovine)
Assay: not stated; apparent Kd of ClpB for casein in the presence of ATPγS (Supplementary Fig. 1d); method not given

Substance	Kd
Escherichia coli ClpB K476C hyperactive middle-domain variant (from UniProt P63284 1-857) (enzyme)	110 nM
Escherichia coli ClpB, wild type (from UniProt P63284 1-857) (enzyme)	130 nM
